Source: patent publication US20230212320A1

Tests used:
[1] = target: Fc2 of PTC039 (IgG1 Fc chain with L351G, T366S, L368A, Y407V) (Homo sapiens (Human)) [IgG part: P0DOX5]; test: SE-HPLC, PTC074 co-expression
[2] = target: Fc2 of PTC039 (IgG1 Fc chain with L351G, T366S, L368A, Y407V) (Homo sapiens (Human)) [IgG part: P0DOX5]; test: SE-HPLC, PTC040 co-expression

Fc-2-2 homo-dimer (%) [1]: 0.96%
Fc-2-2 homo-dimer (%) [2]: 1.5%
Substance: Fc2 of PTC039 (IgG1 Fc chain with L351G, T366S, L368A, Y407V) (from UniProt P0DOX5 218-449)
